Experiments:
[1] = molecular target: T1, human factor B (purified, Complement Technology A135) (human, UniProt P00751 26-764); experiment: SPR (Biacore), CLS012 captured on anti-Fc surface, soluble factor B 3.1-200 nM flowed; Chi2 6.74, fitted lines depart visibly from the data (the text calls the fits poor)
T1 construct: also called fB; human complement factor B
Excerpt: (§1) Binding kinetics of mAbs were further characterized using Biacore's Surface Plasmon Resonance (SPR) technology (GE Healthcare, Piscataway, N.J.). For a detailed description of SPR and its applications in affinity measurement, please see Karlsson and Larsson, Antibody Engineering: Methods and Protocols, Methods in Molecular Biology (2003), 248: 389-415. In one exemplary experiment, TA106 Fab and derivative mAbs were captured on chips of a Biacore 3000 analyzer and samples of human factor B of different concentrations were flowed as the antigen over the surface to model soluble human factor B binding, using protocols recommended by the manufacturer (e.g., in the product brochure #BR-9003-31). All these referenced publications are hereby incorporated by reference in their entirety. […] Fab TA106 (Xoma, Lot#TTA1007, 20 mg/mL) was then flowed over one flow cell, followed by injections of human factor B on both flow cells. Concentrations (factor B) between 3.1-200 nM were run. The surface was regenerated between each cycle. […] The affinities of mAbs, i.e., CLS011, CLS012, and CLS013, were determined using a similar capture approach. In one exemplary experiment, human anti-Fc antibody was amine coupled to two flow cells of a CM5 chip. Each of the TA106-originated mAbs was then flowed over one flow cell, followed by injecting human factor B (3.1-200 nM) on both flow cells. […]

[2] = molecular target: T1, human factor B (purified, Complement …); experiment: cell-based or functional assay
[3] = molecular target: T1, human factor B (purified, Complement …); experiment: SPR (Biacore 3000), mAb captured by anti-Fc antibody on CM5 chip, soluble human factor B 3.1-200 nM; filing calls this value not reliable (poor fits); poor fits; patent calls the value not reliable
Excerpt: as §1

[4] = molecular target: T1, human factor B (purified, Complement …); experiment: SPR (Biacore), factor B coupled to the chip, free CLS016 Fab 0.19-25 nM flowed; Chi2 0.121
Excerpt: (§2) Binding kinetics of TA106 Fab and variant S33A Fab (CLS016) were further characterized using Surface Plasmon Resonance (SPR) technology. In one exemplary experiment, both Fabs were captured on chips of a Biacore 3000 analyzer and samples of human factor B of different concentrations were flowed as the antigen over the surface to model soluble human factor B binding, using protocols recommended by the manufacturer and described previously in the instant disclosure. […] In another exemplary experiment, the affinities of both Fabs were also measured by reversing the orientation of the previous experiment. Specifically, human factor B was directly coupled to one flow cell of a CM5 chip. The second flow cell was used as a blank reference with no coupled ligand. CLS016 or TA106 Fab was then flowed on both flow cells. Concentrations between 0.19 to 25 nM were run with duplicates. The surface was regenerated between each cycle.

[5] = molecular target: T1, human factor B (purified, Complement …); experiment: SPR (Biacore), human factor B directly coupled to CM5 chip, Fab flowed at 0.19-25 nM
Excerpt: as §2

[6] = molecular target: T1, human factor B (purified, Complement …); experiment: SPR (Biacore), CLS016 Fab captured on anti-Fab surface, soluble factor B flowed; Chi2 0.155
Excerpt: as §2

[7] = molecular target: T1, human factor B (purified, Complement …); experiment: BLI (Octet), biotinylated factor B on streptavidin biosensor, Fab at 50 nM
Protocol: (§3) Binding kinetics of TA106 and TA106 S33A Fab (CLS016) to Factor B were analyzed using a FortéBio® Octet® biosensor (FortéBio, Inc.) in a similar protocol as described previously. In one exemplary experiment, Factor B (Complement Technology) was biotinylated at a 1:10 ratio and coupled to a streptavidin biosensor at a concentration of 5 μg/mL for a loading time of 600 seconds. Biosensors were briefly dipped in 1×KB as a wash for 30 seconds. Associations with a titration series of Fab with a concentration range from 100 to 3 nM (diluted in 1×KB) were carried out for 600 seconds. Fabs were dissociated from the biosensor by immersing the biosensor in 1×KB during the 600 second dissociation phase. As depicted in FIGS. 19 and 20, both TA106 Fab and TA106-derivative S33A Fab (CLS016) bound to Factor B at various concentrations, resulting in nearly identical association and dissociation profiles. Kinetic assessments using partial local fit parameters yielded identical values for KD/kₐ/Kd at each concentration tested.

[8] = molecular target: T1, human factor B (purified, Complement …); experiment: BLI (Octet), biotinylated factor B on streptavidin biosensor, Fab at 6.25 nM
Protocol: as §3

[9] = molecular target: T1, human factor B (purified, Complement …); experiment: SPR, factor B on surface, Fab flowed (summary table)
Excerpt: as §2

[10] = molecular target: T1, human factor B (purified, Complement …); experiment: BLI (Octet), biotinylated factor B on streptavidin biosensor, Fab at 12.5 nM
Protocol: as §3

[11] = molecular target: T1, human factor B (purified, Complement …); experiment: SPR (Biacore 3000), Fab captured on chip, soluble human factor B 3.1-100 nM
Excerpt: as §2

[12] = molecular target: T1, human factor B (purified, Complement …); experiment: BLI (Octet), biotinylated factor B on streptavidin biosensor, Fab at 25 nM
Protocol: as §3

[13] = molecular target: T1, human factor B (purified, Complement …); experiment: BLI (Octet), biotinylated factor B on streptavidin biosensor, Fab at 3.13 nM
Protocol: as §3

[14] = molecular target: T1, human factor B (purified, Complement …); experiment: BLI (Octet), binding to factor B (summary table)
Protocol: as §3

[15] = molecular target: T1, human factor B (purified, Complement …); experiment: BLI (Octet), biotinylated factor B on streptavidin biosensor, Fab at 100 nM
Protocol: as §3

[16] = molecular target: T1, human factor B (purified, Complement …); experiment: SPR (Biacore), factor B coupled to the chip, free CLS016 Fab 0.19-25 nM flowed; Chi2 0.121 (the text rounds to 3.4 nM)
Excerpt: as §2

T1 sequence (P00751 26-764): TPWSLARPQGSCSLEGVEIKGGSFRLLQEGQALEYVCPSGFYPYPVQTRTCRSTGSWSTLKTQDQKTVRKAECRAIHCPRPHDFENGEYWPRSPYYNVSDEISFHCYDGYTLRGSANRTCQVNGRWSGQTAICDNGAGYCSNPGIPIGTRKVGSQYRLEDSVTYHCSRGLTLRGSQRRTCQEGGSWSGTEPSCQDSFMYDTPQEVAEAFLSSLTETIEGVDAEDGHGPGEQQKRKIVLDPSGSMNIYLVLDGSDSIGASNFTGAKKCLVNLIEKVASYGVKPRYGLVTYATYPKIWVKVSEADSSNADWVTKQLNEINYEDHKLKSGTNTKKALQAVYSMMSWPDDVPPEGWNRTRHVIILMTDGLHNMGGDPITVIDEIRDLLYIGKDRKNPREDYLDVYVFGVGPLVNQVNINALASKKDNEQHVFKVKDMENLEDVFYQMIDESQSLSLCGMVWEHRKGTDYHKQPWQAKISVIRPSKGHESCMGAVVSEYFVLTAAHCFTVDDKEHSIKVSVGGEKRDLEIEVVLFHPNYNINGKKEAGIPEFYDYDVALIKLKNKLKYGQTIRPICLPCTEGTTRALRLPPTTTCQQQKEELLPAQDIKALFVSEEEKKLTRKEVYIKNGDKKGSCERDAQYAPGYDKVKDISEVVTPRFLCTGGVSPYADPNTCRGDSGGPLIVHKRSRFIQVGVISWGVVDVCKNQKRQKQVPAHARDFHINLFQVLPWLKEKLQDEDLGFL

B1: CLS012 (TA106-derivative N31Q variant, full-length IgG2/4 mAb, expressed in CHO cells) (antibody, V domains shown)
VH: EVQLVQSGAEVKKPGASVKVSCKASGYSFTDYYMTWVRQAPGQGLEWMGWINPNSGGTKYAQKFQGRVTMTRDTSISTAYMELSRLRSDDTAVYYCARGYYANSAWFAYWGQGTLVTVSS
VL: DIVMTQSPDSLAVSLGERATINCKSSQSLLQSSTSKNYLAWYQQKPGQPPKLLIYWASTRESGVPDRFSGSGSGTDFTLTISSLQAEDVAVYYCKQVYNLPWTFGQGTKLEIKR
modifications: N-linked glycans on the heavy chain constant region
notes: Human IgG2/4 full-length mAb; also called CLS012 mAb; TA106 variant N31Q
koff [1]: 0.00422 s⁻¹ | kon [1]: 366000 M⁻¹ s⁻¹ | IC50 (read off the curve); lysis of rabbit red blood cells in 10% normal human serum [2]: ~20 nM | Kd [3]: ~11.5 nM

B2: CLS016 (TA106-derivative S33A variant, IgG1 Fab, expressed in CHO cells) (Fab, V domains shown)
VH: QVQLVQSGAEVKKPGASVKVSCKASGYSFTDYYMTWVRQAPGQGLEWMGWINPNSGGTKYAQKFQGRVTMTRDTSISTAYMELSRLRSDDTAVYYCARGYYANSAWFAYWGQGTLVTVSS
VL: DIVMTQSPDSLAVSLGERATINCKSSQSLLNSATSKNYLAWYQQKPGQPPKLLIYWASTRESGVPDRFSGSGSGTDFTLTISSLQAEDVAVYYCKQVYNLPWTFGQGTKLEIKR
notes: IgG1 Fab of the S33A variant, made in CHO cells; also called TA106 S33A Fab; TA106-derivative S33A Fab
koff [4]: 0.00466 s⁻¹ | kon [4]: 1.38e+06 M⁻¹ s⁻¹ | Kd [5]: ~3.4 nM | koff [6]: 0.00429 s⁻¹ | kon [6]: 131000 M⁻¹ s⁻¹ | Kd [7]: 21.5 nM | koff [7]: 0.00412 s⁻¹ | kon [7]: 192000 M⁻¹ s⁻¹ | Kd [8]: 41.9 nM | koff [8]: 0.00322 s⁻¹ | kon [8]: 76900 M⁻¹ s⁻¹ | Kd [9]: 2.6 nM | Kd [10]: 31.4 nM | koff [10]: 0.00353 s⁻¹ | kon [10]: 112000 M⁻¹ s⁻¹ | Kd [11]: ~32.8 nM | Kd [12]: 22.2 nM | koff [12]: 0.00392 s⁻¹ | kon [12]: 177000 M⁻¹ s⁻¹ | Kd [13]: 28 nM | koff [13]: 0.00244 s⁻¹ | kon [13]: 87300 M⁻¹ s⁻¹ | Kd [14]: 20 to 30 nM | Kd [15]: 13 nM | koff [15]: 0.00438 s⁻¹ | kon [15]: 338000 M⁻¹ s⁻¹ | Kd [16]: 3.37 nM
